Earlier results as cited in article PMC4346141.

What was measured:
[1] = target: IL12Rβ1 clone 3 (Mus musculus) (UniProt Q60837)
[2] = target: IL12Rβ1 clone 2 (Mus musculus) (UniProt Q60837)
[3] = target: IL12Rβ1 (Homo sapiens) (UniProt P42701)
[4] = target: IL12Rβ2 (Homo sapiens) (UniProt Q99665)
[5] = target: IL12Rβ1 monomer (Homo sapiens) (UniProt P42701)

Chain of IL12 (P29459 23-219): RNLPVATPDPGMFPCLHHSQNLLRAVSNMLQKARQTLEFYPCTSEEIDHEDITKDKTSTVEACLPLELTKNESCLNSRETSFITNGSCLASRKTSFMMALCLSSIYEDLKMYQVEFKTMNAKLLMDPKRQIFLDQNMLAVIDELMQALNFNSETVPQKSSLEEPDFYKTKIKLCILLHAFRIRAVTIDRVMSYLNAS
Chain of IL12 (P29460 23-328, further chain): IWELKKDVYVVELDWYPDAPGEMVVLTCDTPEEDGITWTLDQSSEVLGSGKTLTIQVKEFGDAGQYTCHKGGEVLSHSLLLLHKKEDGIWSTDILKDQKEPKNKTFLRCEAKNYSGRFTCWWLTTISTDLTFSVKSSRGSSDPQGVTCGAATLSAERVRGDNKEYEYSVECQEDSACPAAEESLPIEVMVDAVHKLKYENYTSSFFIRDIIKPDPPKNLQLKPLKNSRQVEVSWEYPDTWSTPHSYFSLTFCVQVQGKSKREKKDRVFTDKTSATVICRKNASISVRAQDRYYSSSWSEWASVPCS
Chain of IL12Rβ2 (Homo sapiens) (Q99665 24-622): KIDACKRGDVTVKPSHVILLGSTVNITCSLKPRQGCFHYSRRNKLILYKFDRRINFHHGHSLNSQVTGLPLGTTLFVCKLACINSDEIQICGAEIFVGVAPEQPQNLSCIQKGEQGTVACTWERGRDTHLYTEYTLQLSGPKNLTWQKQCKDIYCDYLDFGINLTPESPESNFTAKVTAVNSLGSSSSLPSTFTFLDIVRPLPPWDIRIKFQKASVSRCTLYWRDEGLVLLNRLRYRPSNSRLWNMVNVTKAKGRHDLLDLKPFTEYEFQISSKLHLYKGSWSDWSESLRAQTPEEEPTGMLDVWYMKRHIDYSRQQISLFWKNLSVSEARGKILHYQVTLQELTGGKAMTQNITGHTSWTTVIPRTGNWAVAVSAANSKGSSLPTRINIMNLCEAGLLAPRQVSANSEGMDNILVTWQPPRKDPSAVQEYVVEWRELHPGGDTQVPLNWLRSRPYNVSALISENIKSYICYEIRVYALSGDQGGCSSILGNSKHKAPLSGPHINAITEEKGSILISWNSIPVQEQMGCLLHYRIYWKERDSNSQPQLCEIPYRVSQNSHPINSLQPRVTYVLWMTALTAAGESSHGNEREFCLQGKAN
Chain of IL12Rβ1 clone 3 (Mus musculus) (Q60837 20-565): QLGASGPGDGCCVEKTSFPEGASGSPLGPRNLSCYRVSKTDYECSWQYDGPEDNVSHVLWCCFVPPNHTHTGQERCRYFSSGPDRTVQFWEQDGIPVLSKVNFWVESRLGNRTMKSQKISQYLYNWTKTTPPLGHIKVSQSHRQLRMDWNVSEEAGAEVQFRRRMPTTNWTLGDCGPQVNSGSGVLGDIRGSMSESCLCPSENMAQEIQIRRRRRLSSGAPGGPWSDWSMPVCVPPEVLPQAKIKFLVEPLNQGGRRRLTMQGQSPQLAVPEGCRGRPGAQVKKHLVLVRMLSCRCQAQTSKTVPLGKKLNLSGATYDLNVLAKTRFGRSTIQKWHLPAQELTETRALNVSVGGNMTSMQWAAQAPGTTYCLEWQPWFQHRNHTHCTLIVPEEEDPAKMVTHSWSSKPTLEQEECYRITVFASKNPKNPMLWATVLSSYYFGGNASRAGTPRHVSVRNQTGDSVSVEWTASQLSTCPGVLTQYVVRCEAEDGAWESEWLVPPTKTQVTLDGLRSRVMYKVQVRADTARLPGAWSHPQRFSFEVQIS
Chain of IL12Rβ1 clone 2 (Mus musculus) (Q60837 20-565): as above

IL12 (from UniProt P43431)
Kd [1]: 1.3 nM | Kd [2]: 0.899 nM

IL12 (from UniProt P29459)
Kd [3]: 3 nM | Kd [4]: 5 nM | Kd [5]: > 50 nM
